In paper doi:10.1101/2021.10.17.464694 (bioRxiv, 2021):

Biological target: K63-linked diubiquitin (UniProt P0CG48 1-76; P0CG48 1-76, K48R | K63R | D77 extension)
Assay: ITC

stoichiometry N: 1 ASCC2 per K63Ub2
B1: full-length ASCC2 (natural protein)
chain: MPALPLDQLQITHKDPKTGKLRTSPALHPEQKADRYFVLYKPPPKDNIPALVEEYLERATFVANDLDWLLALPHDKFWCQVIFDETLQKCLDSYLRYVPRKFDEGVASAPEVVDMQKRLHRSVFLTFLRMSTHKESKDHFISPSAFGEILYNNFLFDIPKILDLCVLFGKGNSPLLQKMIGNIFTQQPSYYSDLDETLPTILQVFSNILQHCGLQGDGANTTPQKLEERGRLTPSDMPLLELKDIVLYLCDTCTTLWAFLDIFPLACQTFQKHDFCYRLASFYEAAIPEMESAIKKRRLEDSKLLGDLWQRLSHSRKKLMEIFHIILNQICLLPILESSCDNIQGFIEEFLQIFSSLLQEKRFLRDYDALFPVAEDISLLQQASSVLDETRTAYILQAVESAWEGVDRRKATDAKDPSVIEEPNGEPNGVTVTAEAVSQASSHPENSEEEECMGAAAAVGPAMCGVELDSLISQVKDLLPDLGEGFILACLEYYHYDPEQVINNILEERLAPTLSQLDRNLDREMKPDPTPLLTSRHNVFQNDEFDVFSRDSVDLSRVHKGKSTRKEENTRSLLNDKRAVAAQRQRYEQYSVVVEEVPLQPGESLPYHSVYYEDEYDDTYDGNQVGANDADSDDELISRRPFTIPQVLRTKVPREGQEEDDDDEEDDADEEAPKPDHFVQDPAVLREKAEARRMAFLAKKGYRHDSSTAVAGSPRGHGQSRETTQERRKKEANKATRANHNRRTMADRKRSKGMIPS
